{"source": "patent US20090042869", "molecular_target": "recombinant SF2/ASF (Protein One) (UniProt Q07955)", "sequence (Q07955 whole entry)": "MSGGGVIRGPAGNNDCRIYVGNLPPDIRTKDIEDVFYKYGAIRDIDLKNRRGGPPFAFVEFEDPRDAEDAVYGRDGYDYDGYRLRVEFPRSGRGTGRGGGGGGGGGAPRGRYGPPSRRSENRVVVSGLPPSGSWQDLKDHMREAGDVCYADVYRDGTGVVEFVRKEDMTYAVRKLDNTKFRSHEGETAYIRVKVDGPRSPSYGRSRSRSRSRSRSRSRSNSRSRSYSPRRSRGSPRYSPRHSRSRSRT"}
{"substance": "Clk1 (Cdc2-like kinase), endogenous, from human platelets", "values": [{"measurement": "SF2/ASF phosphorylation (immune complex kinase assay)", "value": "Clk1 from activated platelets (grown on immobilized fibrinogen in the presence of thrombin for 30 minutes) markedly increased SF2/ASF phosphorylation"}]}
